# Patent publication US20240067728A1 (BIO THERA SOLUTIONS, published 2024)
# Where two headings read alike, the source gives them in different places.
# Assays:
# CD47-His antigen = target: T1, CD47-His antigen (human, UniProt Q08722 19-139); test: competitive ELISA, CD47-His coated, competitor SIRPα-Fc-Bio 0.1 µg/mL
# T1 construct: Human CD47 ECD with C-terminal 8xHIS tag, expressed in HEK293F; also called hCD47-His; human CD47-His
# [1] = target: T2, PD-L1 on CHO-PD-L1 cells (Promega PD-1/PD-L1 Blockade Bioassay) (UniProt Q9NZQ7 19-290, limits assumed); test: cell-based or functional assay
# PD-L1-His antigen [2] = target: T3, PD-L1-His antigen (human, UniProt Q9NZQ7 19-238); test: SPR (Biacore), method of Example 5, 1:1 Binding fit
# T3 construct: Human PD-L1 ECD with C-terminal 8xHIS tag, expressed in HEK293F; also called hPDL1-His; human PD-L1-His
# [3] = target: T2, PD-L1 on CHO-PD-L1 cells (Promega …); test: cell-based or functional assay; remark: listed apart in the source
# [4] = target: T4, human PD-L1 on PD-L1-CHO cells (human, UniProt Q9NZQ7 19-290); test: FACS on PD-L1-CHO cells, PE-labeled anti-human Fc secondary antibody; MFI(Mean) against Con(nM)
# T4 construct: whole, on cells; also called CHO cells overexpressing human PD-L1; PD-L1 expressed on the cell surface
# PD-L1-His antigen [5] = target: T3, PD-L1-His antigen; test: SPR (Biacore T200), PD-L1-His immobilised on chip, antibody as mobile phase, 1:1 Binding fit
# T3 sequence (Q9NZQ7 other isoform, or with tags, fused parts or gaps limits assumed): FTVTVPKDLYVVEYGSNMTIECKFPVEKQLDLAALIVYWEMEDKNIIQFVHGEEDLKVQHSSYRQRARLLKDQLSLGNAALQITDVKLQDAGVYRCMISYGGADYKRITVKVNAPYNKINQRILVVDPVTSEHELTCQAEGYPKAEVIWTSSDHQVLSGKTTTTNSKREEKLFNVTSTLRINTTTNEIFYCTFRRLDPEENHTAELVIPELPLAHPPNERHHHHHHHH
# T1 sequence (Q08722 other isoform, or with tags, fused parts or gaps limits assumed): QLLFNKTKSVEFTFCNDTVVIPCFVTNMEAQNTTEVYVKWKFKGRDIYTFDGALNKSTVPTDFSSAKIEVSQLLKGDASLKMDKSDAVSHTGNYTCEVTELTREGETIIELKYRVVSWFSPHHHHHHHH
# T2 sequence (Q9NZQ7 19-290 limits assumed): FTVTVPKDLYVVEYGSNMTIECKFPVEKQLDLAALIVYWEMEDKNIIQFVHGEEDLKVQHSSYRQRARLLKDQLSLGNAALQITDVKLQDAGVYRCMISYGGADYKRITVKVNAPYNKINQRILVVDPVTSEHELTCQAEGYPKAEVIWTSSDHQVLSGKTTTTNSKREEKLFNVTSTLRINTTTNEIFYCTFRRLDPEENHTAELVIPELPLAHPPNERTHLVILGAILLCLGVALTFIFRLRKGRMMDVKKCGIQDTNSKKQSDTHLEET
# T4 sequence (Q9NZQ7 19-290): as the sequence (Q9NZQ7 19-290 limits assumed) above
IC50 (CD47-His antigen),"EC50 (luciferase reporter, PD-1/PD-L1 blockade MOA assay; blocked partner: PD-1 on Jurkat-PD1 cells) [1]",Kd (PD-L1-His antigen [2]),Binder,further results
1.31 µg/mL,–,–,"antibody 25 (antibody, human IgG1, kappa, V domains shown, IgG1 complete anti-CD47 antibody) VH: QVQLQESGPGLVKPSETLSLTCTVSGGSLDNYYWSWIRQPPGKGLEWIGYIYYSGNTNYNPSLKSRVTISVDTSKNQFSLRLRSVTAADTAVYYCARGGRIFGHWGQGTLVTVSS VL: DIQMTQSPSSVSASVGDRVTISCRANQAIGTWLAWYQQKPGKAPKLLIYAASTLQSGVPSRFSGSGSGTEFTLTISSLQAEDVAVYYCQQYYTTPLTFGGGTKLEIKR",–
–,3.92 µg/mL,10.3 nM,"L1-R2-6 (antibody, V domains shown, Anti-PD-L1 monoclonal antibody, VH CP11-27 with light chain R2-6; also called LI-R2-6) VH: not shown VL: EIVLTQSPSSVSASVGDKLTMTCQASQDIGKHLNWYQQKPGKPPKLLIYGASNLKTGVPSRFSGTGSGTDFTLTISSLQPEDFATYYCQQSYTTPYTFGQGTRLEIKR",–
1.41 µg/mL,–,–,"antibody 24 (antibody, human IgG1, kappa, V domains shown, IgG1 complete anti-CD47 antibody) VH: QVQLQESGPGLVKPSETLSLTCTVSGGSLDNYYWSWIRQPPGKGLEWIGRIYGDSATNYNPSLKSRVTISVDTSKNQFSLRLRSVTAADTAVYYCARGGRIFSGYWGQGTLVTVSS VL: DIQMTQSPSSVSASVGDRVTISCRANQAIGTWLAWYQQKPGKAPKLLIYAASTLQSGVPSRFSGSGSGTEFTLTISSLQAEDVAVYYCQQYYTTPLTFGGGTKLEIKR",–
0.795 µg/mL,–,–,"antibody 17 (antibody, human IgG1, kappa, V domains shown, IgG1 complete anti-CD47 antibody) VH: QVQLQESGPGLVKPSETLSLTCTVSGGSLDNYYWSWIRQPPGKGLEWIGYIYYSGNTNYNPSLKSRVTISVDTSKNQFSLRLRSVTAADTAVYYCARGGRFLERYWGQGTLVTVSS VL: DIQMTQSPSSVSASVGDRVTISCRANQAIGTWLAWYQQKPGKAPKLLIYAASTLQSGVPSRFSGSGSGTEFTLTISSLQAEDVAVYYCQQYYTTPLTFGGGTKLEIKR",–
1.1 µg/mL,–,–,"antibody 6 (antibody, human IgG1, kappa, V domains shown, IgG1 complete anti-CD47 antibody) VH: QVQLQESGPGLVKPSETLSLTCTVSGGSLNDYYWSWIRQPPGKGLEWIGRIYGNGDTNYNPSLKSRVTISVDTSKNQFSLRLRSVTAADTAVYYCARGGRILAGYWGQGTLVTVSS VL: DIQMTQSPSSVSASVGDRVTISCRANQAIGTWLAWYQQKPGKAPKLLIYAASTLQSGVPSRFSGSGSGTEFTLTISSLQAEDVAVYYCQQYYTTPLTFGGGTKLEIKR",–
–,5.09 µg/mL,3.92 nM,"L1-R2-18 (antibody, V domains shown, Anti-PD-L1 monoclonal antibody, VH CP11-27 with light chain R2-18; also called LI-R2-18) VH: not shown VL: EIVLTQSPSSVSASVGDRITITCRASQGIGSWLAWYQQKPGKAPSLLIYAASSLQSGVPSRFSGSGSGTDFTLTISSLQTEDVAVYYCQQYFSTPYTFGQGTKVDIKR",–
–,5.22 µg/mL,11.5 nM,"L1-R2-85 (antibody, V domains shown, Anti-PD-L1 monoclonal antibody, VH CP11-27 with light chain R2-85; also called LI-R2-85) VH: not shown VL: DIQMTQSPSSLSASVGDRVTIPCRASQGIGKFLAWYQQKPGKAPSLLIYAASSLQSGVPSRFSGSGSGTDFTLTISSLQTEDVAVYYCQQYFSTPYTFGQGTKVDIKR",–

# The next lines start with the binder.
Binder,IC50 (CD47-His antigen),"EC50 (luciferase reporter, PD-1/PD-L1 blockade MOA assay; blocked partner: PD-1 on Jurkat-PD1 cells) [1]",Kd (PD-L1-His antigen [2]),further results
"antibody 18 (antibody, human IgG1, kappa, V domains shown, IgG1 complete anti-CD47 antibody) VH: QVQLQESGPGLVKPSETLSLTCTVSGGSLDNYYWSWIRQPPGKGLEWIGYIYYSGNTNYNPSLKSRVTISVDTSKNQFSLRLRSVTAADTAVYYCARGRGIFGYWGQGTLVTVSS VL: DIQMTQSPSSVSASVGDRVTISCRANQAIGTWLAWYQQKPGKAPKLLIYAASTLQSGVPSRFSGSGSGTEFTLTISSLQAEDVAVYYCQQYYTTPLTFGGGTKLEIKR",1.23 µg/mL,–,–,–
"antibody L12-6 (antibody, human IgG1, kappa, V domains shown, IgG1 complete anti-CD47 antibody) VH: QVQLQESGPGLVKPSETLSLTCTVSGGSLDNYYWSWIRQPPGKGLEWIGYIYYSGNTNYNPSLKSRVTISVDTSKNQFSLKLSSVTAADTAVYYCARGGRFLERYWGQGTLVTVSS VL: EIVLTQSPSSLSASVGDRVTIPCRASLSIGSFLNWYQQRPGEAPKLLIFAASSLRSGVPSRFSGSGSGTDFTLTISGLQPEDFATYYCQQTYTTPYTFGQGTKVDIKR",0.913 µg/mL,–,–,–
"antibody 3-6 (antibody, human IgG1, kappa, V domains shown, IgG1 complete anti-CD47 antibody) VH: QVQLQESGPGLVKPSETLSLTCTVSGGSLDNYYWSWIRQPPGKGLEWIGYIYYSGNTNYNPSLKSRVTISVDTSKNQFSLRLRSVTAADTAVYYCARGGRIFAGYWGQGTLVTVSS VL: DIQMTQSPSSVSASVGDRVTISCRANQAIGTWLAWYQQKPGKAPKLLIYAASTLQSGVPSRFSGSGSGTEFTLTISSLQAEDVAVYYCQQYYTTPLTFGGGTKLEIKR",1.12 µg/mL,–,–,–
"antibody 3-3 (antibody, human IgG1, kappa, V domains shown, IgG1 complete anti-CD47 antibody) VH: QVQLQESGPGLVKPSETLSLTCTVSGGSLDNYYWSWIRQPPGKGLEWIGYIYYSGNTNYNPSLKSRVTISVDTSKNQFSLRLRSVTAADTAVYYCARGGRIFGGYWGQGTLVTVSS VL: DIQMTQSPSSVSASVGDRVTISCRANQAIGTWLAWYQQKPGKAPKLLIYAASTLQSGVPSRFSGSGSGTEFTLTISSLQAEDVAVYYCQQYYTTPLTFGGGTKLEIKR",0.939 µg/mL,–,–,–
"antibody 3 (antibody, human IgG1, kappa, V domains shown, IgG1 complete anti-CD47 antibody) VH: QVQLQESGPGLVKPSETLSLTCTVSGGSLDGYYWSWIRQPPGKGLEWIGRIYGNSTTNYNPSLKSRVTISVDTSKNQFSLRLRSVTAADTAVYYCARGGRIFAGYWGQGTLVTVSS VL: DIQMTQSPSSVSASVGDRVTISCRANQAIGTWLAWYQQKPGKAPKLLIYAASTLQSGVPSRFSGSGSGTEFTLTISSLQAEDVAVYYCQQYYTTPLTFGGGTKLEIKR",0.844 µg/mL,–,–,–
"antibody 16 (antibody, human IgG1, kappa, V domains shown, IgG1 complete anti-CD47 antibody) VH: QVQLQESGPGLVKPSETLSLTCTVSGGSLDNYYWSWIRQPPGKGLEWIGYIYYSGNTNYNPSLKSRVTISVDTSKNQFSLRLRSVTAADTAVYYCARGGRIFSGYWGQGTLVTVSS VL: DIQMTQSPSSVSASVGDRVTISCRANQAIGTWLAWYQQKPGKAPKLLIYAASTLQSGVPSRFSGSGSGTEFTLTISSLQAEDVAVYYCQQYYTTPLTFGGGTKLEIKR",0.975 µg/mL,–,–,–
"antibody 10 (antibody, human IgG1, kappa, V domains shown, IgG1 complete anti-CD47 antibody) VH: QVQLQESGPGLVKPSETLSLTCTVSGGSLDNYYWSWIRQPPGKGLEWIGRIYYNGNTNYNPSLKSRVTISVDTSKNQFSLRLRSVTAADTAVYYCARGGRILAGYWGQGTLVTVSS VL: DIQMTQSPSSVSASVGDRVTISCRANQAIGTWLAWYQQKPGKAPKLLIYAASTLQSGVPSRFSGSGSGTEFTLTISSLQAEDVAVYYCQQYYTTPLTFGGGTKLEIKR",1.06 µg/mL,–,–,–
"L1-R2-4-46 (antibody, human IgG1, kappa, V domains shown) VH: EVQLVESGGGLVQPGGSLRLSCAASGFTFSDSWIHWVRQAPGKGLEWVGWISPYGGSTYYADSLGDRFTISADTSKNTAYLQMNSLRAEDTAVYYCARRHWPGGFDYWGQGTLVTVSS VL: EIVLTQSPSSLSASVGDRVTITCLASQTIGTWLAWYQQKPGKSPQLLIYAASTLQSGVPSRFSGSGSGTDFTLTISSLQPEDVATYYCQQYYSTPRTFGQGTKVEIKR",–,–,–,"EC50 (luciferase reporter, PD-1/PD-L1 blockade MOA assay; blocked partner: PD-1 on Jurkat-PD1 cells) [3]: 0.224 µg/mL; EC50 (read off the curve) [3]: ~1 µg/mL; EC50 (read off the curve) [4]: ~0.6 nM; Kd (PD-L1-His antigen [5]): 0.282 nM"
"L1-R2-4 (antibody, V domains shown, Anti-PD-L1 monoclonal antibody, VH CP11-27 with light chain R2-4; also called LI-R2-4) VH: not shown VL: EIVLTQSPSSLSASVGDRVTITCLASQTIGTWLAWYQQKPGKSPQLLIYAASTLQSGVPSRFSGSGSGTDFTLTISSLQPEDVATYYCQQYYSTPRTFGQGTKVEIKR",–,2.74 µg/mL,1.67 nM,–
"L1-R2-4-36 (antibody, human IgG1, kappa, V domains shown) VH: EVQLVESGGGLVQPGGSLRLSCAASGFTFSDSWIHWVRQAPGKGLEWVGWISPYGGSTYYADDFRHRFTISADTSKNTAYLQMNSLRAEDTAVYYCARRHWPGGFDYWGQGTLVTVSS VL: EIVLTQSPSSLSASVGDRVTITCLASQTIGTWLAWYQQKPGKSPQLLIYAASTLQSGVPSRFSGSGSGTDFTLTISSLQPEDVATYYCQQYYSTPRTFGQGTKVEIKR",–,–,–,"EC50 (luciferase reporter, PD-1/PD-L1 blockade MOA assay; blocked partner: PD-1 on Jurkat-PD1 cells) [3]: 0.148 µg/mL; EC50 (read off the curve) [3]: ~1 µg/mL; EC50 (read off the curve) [4]: ~0.6 nM; Kd (PD-L1-His antigen [5]): 0.341 nM"
"L1-R2-4-55 (antibody, human IgG1, kappa, V domains shown) VH: EVQLVESGGGLVQPGGSLRLSCAASGFTFSDSWIHWVRQAPGKGLEWVGWISPYGGSTYYADGMRSRFTISADTSKNTAYLQMNSLRAEDTAVYYCARRHWPGGFDYWGQGTLVTVSS VL: EIVLTQSPSSLSASVGDRVTITCLASQTIGTWLAWYQQKPGKSPQLLIYAASTLQSGVPSRFSGSGSGTDFTLTISSLQPEDVATYYCQQYYSTPRTFGQGTKVEIKR",–,–,–,"EC50 (luciferase reporter, PD-1/PD-L1 blockade MOA assay; blocked partner: PD-1 on Jurkat-PD1 cells) [3]: 0.401 µg/mL; EC50 (read off the curve) [3]: ~2 µg/mL; Kd (PD-L1-His antigen [5]): 0.371 nM"
"L1-R2-89 (antibody, V domains shown, Anti-PD-L1 monoclonal antibody, VH CP11-27 with light chain R2-89; also called LI-R2-89) VH: not shown VL: DIQMTQSPSSLSASVGDRVTITCLASQTIGTWLAWYQQKPGKSPQLLIYAASSLQSGVPSRFSGSGSGTDFTLTISSLQPEDVATYYCQQYYSTPYTFGQGTKVDIKR",–,3.78 µg/mL,4.08 nM,–
"L1-R2-78 (antibody, V domains shown, Anti-PD-L1 monoclonal antibody, VH CP11-27 with light chain R2-78; also called LI-R2-78) VH: not shown VL: DIQMTQSPSSFSASTGDRVTITCRASQGISSYLAWYQQKPGKAPKLLIYAASRLQSGVPSRFSGSGSGTDFTLTISSLQAEDVAVYYCQQYYSTPYTFGQGTKVDIKR",–,3.57 µg/mL,8.99 nM,–
